From the supplement of paper PMC9170038

Tested on: MS2 coat protein
Experiment: apparent KD of MS2 coat protein; higher = weaker reporter binding
Conditions: Eterna round: R107
Summary of the method: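 In 100 mM Tris-HCl pH 7.5 with 80 mM KCl and 4 mM MgCl2, and without or with constant ligand, SNAP-549-labelled MS2 coat protein was titrated in twofold steps from 0.7 or 1.5 nM to 3 µM. Per-step times went from 0.8–1.5 h down to 10–20 min. The RNA switches were transcribed on-chip from Illumina sequencing clusters, and apparent KD is the per-design median of normalised cluster binding-curve fits.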

[1] = input ligand: theophylline 20 uM
[2] = input ligand: theophylline 2 mM
[3] = input ligand: tryptophan 2.4 mM

## ACAUGAGGAUCACCCAUGUAUGACUAUCCUCGAGGACCGGUACGGCCGCCACUCGAACGAGUGGCUCGCGAGUGCGCACUUGCGA [5' end]
Input ligand: arginine 13.2 mM
  apparent KD of MS2 coat protein: 16.7 nM
Input ligand: none
  apparent KD of MS2 coat protein: 13.2 nM
[1]
  apparent KD of MS2 coat protein: 16.7 nM
[2]
  apparent KD of MS2 coat protein: 12.7 nM
[3]
  apparent KD of MS2 coat protein: 11.9 nM

## AUGCAUAUCAGAAGGAGCGUCAUUAACAUGAGGAUCACCCAUGUAACAUUGAAUUCGAUGAGACAGGUAGGUCGCUGAAUAGUAA [SS-ArgB26]
Input ligand: arginine 13.2 mM
  apparent KD of MS2 coat protein: 26.6 nM
Input ligand: none
  apparent KD of MS2 coat protein: 35.6 nM
[1]
  apparent KD of MS2 coat protein: 44.9 nM
[2]
  apparent KD of MS2 coat protein: 37.9 nM
[3]
  apparent KD of MS2 coat protein: 31.1 nM

## UGAGUUCGCUGAUGGGCUAAGUCAGGUGAUACCAGCCACUCCCGCGGCCCUUGGCAGCACAUGAGGAUCACCCAUGUAGAACUUG [Vexetela]
Input ligand: arginine 13.2 mM
  apparent KD of MS2 coat protein: 16 nM
Input ligand: none
  apparent KD of MS2 coat protein: 18.4 nM
[1]
  apparent KD of MS2 coat protein: 31.1 nM
[2]
  apparent KD of MS2 coat protein: 374 nM
[3]
  apparent KD of MS2 coat protein: 20.2 nM

## ACGACGCAUAGUGAUACCAGUAGAACAUGAGGAUCACCCAUGUCUGUGACGCACAAACUCUGCCCUUGGCAGCACUAUGCGUCAG [SSTheo B #7]
Input ligand: arginine 13.2 mM
  apparent KD of MS2 coat protein: 12 nM
[1]
  apparent KD of MS2 coat protein: 15.9 nM
[3]
  apparent KD of MS2 coat protein: 12.2 nM

## ACGUCACGUUUACUCGUGGUUUCGUUCGAUACCAGUAGCGAGAGUUACCCUUGGCAGCGACAUGAGGAUCACCCAUGUACGAAGA [XTheo A #24]
Input ligand: arginine 13.2 mM
  apparent KD of MS2 coat protein: 12.7 nM
[1]
  apparent KD of MS2 coat protein: 15 nM
[3]
  apparent KD of MS2 coat protein: 12.9 nM

## UUCACGGGCACGGCCGCCACUAACCAACAUGAGGAUCACCCAUGUGUAUUGGACGACCUCUUUGCUAGGACCGGGUGUAUGGUUC [theeternabot_exclusion_MS2_Trp_B_15]
Input ligand: arginine 13.2 mM
  apparent KD of MS2 coat protein: 25.3 nM
[1]
  apparent KD of MS2 coat protein: 32.3 nM
[2]
  apparent KD of MS2 coat protein: 32.6 nM

## AAUCGGGAUGGUCAAGGGUAUGCUAUAGAUACCAGUGCAGAGAAACACCCUUGGCAGCUGUGGAACAUGAGGAUCACCCAUGUAG [Theo A Ex t4]
Input ligand: arginine 13.2 mM
  apparent KD of MS2 coat protein: 17.2 nM
Input ligand: none
  apparent KD of MS2 coat protein: 11.2 nM
[1]
  apparent KD of MS2 coat protein: 22.7 nM
[2]
  apparent KD of MS2 coat protein: 17.3 nM
[3]
  apparent KD of MS2 coat protein: 11.1 nM

## AUCGUACCUGAUGAUACCAGCAAGUGAUCAUAACAUGAGGAUCACCCAUGUAAUCAGUGAUGCCCUUGGCAGCAUAGUCGAUACA [Same State - Theophylline B (Freestyle 5)]
Input ligand: arginine 13.2 mM
  apparent KD of MS2 coat protein: 77.8 nM
[1]
  apparent KD of MS2 coat protein: 199 nM
[3]
  apparent KD of MS2 coat protein: 166 nM

## AGGACGGUCGGAAGGAGCGGUACAUGAGGAUCACCCAUGUACUCCUGGGCAUCCGUAGUGUGCCAGGUAGGUCGCCGAUUGCGGG [XArg-B8]
Input ligand: arginine 13.2 mM
  apparent KD of MS2 coat protein: 12.1 nM
Input ligand: none
  apparent KD of MS2 coat protein: 12.1 nM
[1]
  apparent KD of MS2 coat protein: 19.8 nM
[2]
  apparent KD of MS2 coat protein: 21.5 nM
[3]
  apparent KD of MS2 coat protein: 16.2 nM

## AGCGUGCAUCGGAAAACGAUGUACGCAAAUCGAGGACCGGUACGGCCGCCACUCGUCCUCAACAUGAGGAUCACCCAUGUAAUAA [Mat - Exclusion - Trytophan A - D10]
Input ligand: arginine 13.2 mM
  apparent KD of MS2 coat protein: 22 nM
[1]
  apparent KD of MS2 coat protein: 24.8 nM
[2]
  apparent KD of MS2 coat protein: 24 nM

## ACACAUGAGGAUCACCCAUGUGCGCUGGAAGGAGCGCAGAAUCAUGCAGGUAGGUCGCCAGUGCCCUCUACUAAAGGGAAAAGAG [Diatsoceri]
Input ligand: arginine 13.2 mM
  apparent KD of MS2 coat protein: 66.5 nM
Input ligand: none
  apparent KD of MS2 coat protein: 72 nM
[1]
  apparent KD of MS2 coat protein: 120 nM
[2]
  apparent KD of MS2 coat protein: 92.9 nM
[3]
  apparent KD of MS2 coat protein: 68.5 nM

## AGUGUUAUAACUGAUACCAGACUCUCAUGUUUACAUGAGGAUCACCCAUGUUAUUUCUUUGUCCCUUGGCAGCAGAAUUAACACA [JR_SSTheophyB_Sub010]
Input ligand: arginine 13.2 mM
  apparent KD of MS2 coat protein: 152 nM
[1]
  apparent KD of MS2 coat protein: 175 nM
[3]
  apparent KD of MS2 coat protein: 215 nM

## GGAACGAUCACUUCUUUAUCUAAGGCGGAUACCAGUCCUCGGUUUGACCCUUGGCAGCCGACAACAUGAGGAUCACCCAUGUUCU [theeternabot_exclusion_MS2_Theo_A_25]
Input ligand: arginine 13.2 mM
  apparent KD of MS2 coat protein: 12.5 nM
[1]
  apparent KD of MS2 coat protein: 18.9 nM
[3]
  apparent KD of MS2 coat protein: 15.6 nM

## CCAUGGCUAGGAAGGAGCGCAUACUUCACAUGAGGAUCACCCAUGUCGAGACGUGAGUCAGUGCAGGUAGGUCGCCUAGCCAUGG [Same State - Arginine B (Freestyle 30)]
Input ligand: arginine 13.2 mM
  apparent KD of MS2 coat protein: 19.8 nM
Input ligand: none
  apparent KD of MS2 coat protein: 16.7 nM
[1]
  apparent KD of MS2 coat protein: 29.2 nM
[2]
  apparent KD of MS2 coat protein: 24.8 nM
[3]
  apparent KD of MS2 coat protein: 18.6 nM

## GAAUAUUACAUGAGGAUCACCCAUGUAGAUACCAGCCUUGAUUGUGGCCCUUGGCAGCUACGCCGUGAAUGCCUCAGUUGCUUAC [Atidi]
Input ligand: arginine 13.2 mM
  apparent KD of MS2 coat protein: 36.8 nM
[1]
  apparent KD of MS2 coat protein: 121 nM
[3]
  apparent KD of MS2 coat protein: 72 nM

## AUUGUCGCGUCGGCCGCCACUGUCAUGGUUUUCGUGGAACACAUGAGGAUCACCCAUGUAAUUGACAGGACCGGGACGUGGCGGC [Vevea]
Input ligand: arginine 13.2 mM
  apparent KD of MS2 coat protein: 10.2 nM
Input ligand: none
  apparent KD of MS2 coat protein: 8.64 nM
[1]
  apparent KD of MS2 coat protein: 11.1 nM
[2]
  apparent KD of MS2 coat protein: 10.6 nM
[3]
  apparent KD of MS2 coat protein: 12.2 nM
